How the values were obtained:
[1] = target: Botulinum neurotoxin serotype A holotoxin (Clostridium botulinum, UniProt P0DPI1;P0DPI1 P0DPI1:2-448,P0DPI1:449-1296)
[2] = target: Botulinum neurotoxin serotype A light chain (50 kD zinc endopeptidase) (Clostridium botulinum, UniProt P0DPI1 P0DPI1:2-448)
[3] = target: Botulinum neurotoxin serotype B holotoxin (Clostridium botulinum, UniProt B1INP5;B1INP5 B1INP5:2-441,B1INP5:442-1291)
[4] = target: Botulinum neurotoxin serotype B light chain (Clostridium botulinum, UniProt B1INP5 B1INP5:2-441)
Chain of Botulinum neurotoxin serotype B light chain (B1INP5 2-441, one chain of several): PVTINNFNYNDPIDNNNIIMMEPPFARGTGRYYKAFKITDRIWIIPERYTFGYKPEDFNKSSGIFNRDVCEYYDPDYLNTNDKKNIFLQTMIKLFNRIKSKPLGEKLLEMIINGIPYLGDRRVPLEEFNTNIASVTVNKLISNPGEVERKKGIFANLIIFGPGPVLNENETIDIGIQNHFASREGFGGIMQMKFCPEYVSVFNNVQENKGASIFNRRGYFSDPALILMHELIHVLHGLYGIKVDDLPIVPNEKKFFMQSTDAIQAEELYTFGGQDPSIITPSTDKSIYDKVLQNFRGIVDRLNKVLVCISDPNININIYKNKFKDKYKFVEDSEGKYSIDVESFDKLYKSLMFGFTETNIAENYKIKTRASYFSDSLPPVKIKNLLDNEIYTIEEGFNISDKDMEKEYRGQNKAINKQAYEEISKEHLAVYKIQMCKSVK

Measured: binding result

Chain of Botulinum neurotoxin serotype B holotoxin (B1INP5 2-441, chain 1 of 2): as the sequence (B1INP5 2-441, one chain of several) above
Chain of Botulinum neurotoxin serotype B holotoxin (B1INP5 442-1291, chain 2 of 2): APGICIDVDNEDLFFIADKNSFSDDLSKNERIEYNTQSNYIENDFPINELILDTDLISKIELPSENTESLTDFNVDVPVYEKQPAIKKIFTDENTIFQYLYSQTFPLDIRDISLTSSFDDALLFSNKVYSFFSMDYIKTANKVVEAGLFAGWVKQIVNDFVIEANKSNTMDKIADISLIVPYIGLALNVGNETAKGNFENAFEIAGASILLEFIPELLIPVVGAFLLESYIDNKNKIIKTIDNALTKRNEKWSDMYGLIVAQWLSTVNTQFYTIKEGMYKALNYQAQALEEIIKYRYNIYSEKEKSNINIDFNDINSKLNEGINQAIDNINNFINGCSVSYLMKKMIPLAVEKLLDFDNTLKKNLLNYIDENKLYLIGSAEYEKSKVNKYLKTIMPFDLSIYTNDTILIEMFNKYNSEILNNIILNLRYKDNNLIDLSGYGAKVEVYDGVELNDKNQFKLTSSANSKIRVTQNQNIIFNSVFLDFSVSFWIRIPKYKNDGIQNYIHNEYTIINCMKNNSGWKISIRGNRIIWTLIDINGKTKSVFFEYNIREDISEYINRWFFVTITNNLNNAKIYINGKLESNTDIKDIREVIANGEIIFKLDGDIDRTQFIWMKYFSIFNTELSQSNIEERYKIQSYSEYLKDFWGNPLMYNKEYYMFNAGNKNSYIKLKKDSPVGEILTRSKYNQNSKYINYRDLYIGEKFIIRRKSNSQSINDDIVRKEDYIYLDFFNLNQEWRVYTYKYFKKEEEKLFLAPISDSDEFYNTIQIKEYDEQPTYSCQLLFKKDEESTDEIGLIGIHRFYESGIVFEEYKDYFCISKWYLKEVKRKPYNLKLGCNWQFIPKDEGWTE
Chain of Botulinum neurotoxin serotype A light chain (50 kD zinc endopeptidase) (P0DPI1 2-448, one chain of several): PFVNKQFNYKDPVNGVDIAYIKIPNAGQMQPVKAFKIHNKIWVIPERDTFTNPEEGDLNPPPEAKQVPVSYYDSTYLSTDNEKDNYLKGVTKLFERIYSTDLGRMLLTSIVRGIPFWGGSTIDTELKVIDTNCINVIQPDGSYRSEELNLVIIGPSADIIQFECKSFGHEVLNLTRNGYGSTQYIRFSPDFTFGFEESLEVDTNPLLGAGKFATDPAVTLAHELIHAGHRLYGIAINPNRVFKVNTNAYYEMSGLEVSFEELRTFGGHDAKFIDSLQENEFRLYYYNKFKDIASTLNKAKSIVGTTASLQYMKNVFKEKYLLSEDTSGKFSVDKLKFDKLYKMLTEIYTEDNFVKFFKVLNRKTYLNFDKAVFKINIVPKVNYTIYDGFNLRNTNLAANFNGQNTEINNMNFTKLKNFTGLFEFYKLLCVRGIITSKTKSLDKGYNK
Chain of Botulinum neurotoxin serotype A holotoxin (P0DPI1 2-448, chain 1 of 2): as the sequence (P0DPI1 2-448, one chain of several) above
Chain of Botulinum neurotoxin serotype A holotoxin (P0DPI1 449-1296, chain 2 of 2): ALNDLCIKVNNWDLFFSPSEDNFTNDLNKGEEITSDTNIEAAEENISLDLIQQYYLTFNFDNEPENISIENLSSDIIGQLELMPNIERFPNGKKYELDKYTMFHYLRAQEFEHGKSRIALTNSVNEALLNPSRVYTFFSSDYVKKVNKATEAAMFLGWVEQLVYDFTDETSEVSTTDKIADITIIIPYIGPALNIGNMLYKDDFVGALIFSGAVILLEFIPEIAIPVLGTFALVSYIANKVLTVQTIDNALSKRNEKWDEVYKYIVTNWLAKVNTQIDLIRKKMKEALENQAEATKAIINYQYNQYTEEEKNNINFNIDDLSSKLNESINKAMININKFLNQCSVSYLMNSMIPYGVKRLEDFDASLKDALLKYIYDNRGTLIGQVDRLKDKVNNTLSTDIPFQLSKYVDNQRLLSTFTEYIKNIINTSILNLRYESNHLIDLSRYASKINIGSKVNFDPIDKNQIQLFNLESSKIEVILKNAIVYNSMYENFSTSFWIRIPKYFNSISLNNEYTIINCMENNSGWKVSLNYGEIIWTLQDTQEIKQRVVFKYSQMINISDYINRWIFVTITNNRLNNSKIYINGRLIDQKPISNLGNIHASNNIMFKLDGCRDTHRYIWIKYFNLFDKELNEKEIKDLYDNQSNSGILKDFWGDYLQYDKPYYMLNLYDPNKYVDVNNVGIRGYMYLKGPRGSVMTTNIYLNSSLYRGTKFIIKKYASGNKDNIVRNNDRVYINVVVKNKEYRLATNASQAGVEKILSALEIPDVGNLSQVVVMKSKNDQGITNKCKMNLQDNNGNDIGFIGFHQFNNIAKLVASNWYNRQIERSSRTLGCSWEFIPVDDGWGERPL

B1: BoNT A/B LC aptamer (ssDNA)
DNA: CATCCGTCACACCTGCTCTGATCAGGGAAGACGCCAACACTGGTGTTGGCTCCCGTATCA
binds: [1] | [2] | [3] | [4]

B2: BoNT A/B HT aptamer (ssDNA)
DNA: CATCCGTCACACCTGCTCTGCTATCACATGCCTGCTGAAGTGGTGTTGGCTCCCGTATCA
binds: [2] | [3] | [4]
